Results on two molecules are retold here after paper PMC4439027, “Selection of scFv Antibody Fragments Binding to Human Blood versus Lymphatic Endothelial Surface Antigens by Direct Cell Phage Display” (PLoS ONE, 2015).

The target of assay [1] is T1, CD146 / MCAM on BECs and melanoma cells (Homo sapiens, UniProt P43121-1).
T1 construct: also called native CD146; CD146 expressed by BECs, melanoma cells; source: endogenous, on BECs and melanoma cell lines A375, CRL1676, HTB71 (fixed monolayers)
Description: immunostaining of cells or tissue; immunofluorescence on fixed cells (BECs, LECs, HDMECs, melanoma cells) and human skin cryosections, co-staining with anti-podoplanin or commercial anti-CD146 antibody. As to conditions: one partner purified.

In assay [2] the target is T2, Recombinant human CD146 comprising the extracellular Met1-Gly559 portion of the protein precursor, C-terminal … (Homo sapiens, UniProt P43121-1).
T2 construct: signal peptide in the construct; human CD146 / MCAM / MUC18, extracellular Met1-Gly559 portion of the protein precursor (NP_006491.2); also called recombinant CD146; extracellular domain of recombinant human CD146; source: bought: Sino Biological Inc., Nr; 10115-H08H
T2 sequence (P43121 24-559): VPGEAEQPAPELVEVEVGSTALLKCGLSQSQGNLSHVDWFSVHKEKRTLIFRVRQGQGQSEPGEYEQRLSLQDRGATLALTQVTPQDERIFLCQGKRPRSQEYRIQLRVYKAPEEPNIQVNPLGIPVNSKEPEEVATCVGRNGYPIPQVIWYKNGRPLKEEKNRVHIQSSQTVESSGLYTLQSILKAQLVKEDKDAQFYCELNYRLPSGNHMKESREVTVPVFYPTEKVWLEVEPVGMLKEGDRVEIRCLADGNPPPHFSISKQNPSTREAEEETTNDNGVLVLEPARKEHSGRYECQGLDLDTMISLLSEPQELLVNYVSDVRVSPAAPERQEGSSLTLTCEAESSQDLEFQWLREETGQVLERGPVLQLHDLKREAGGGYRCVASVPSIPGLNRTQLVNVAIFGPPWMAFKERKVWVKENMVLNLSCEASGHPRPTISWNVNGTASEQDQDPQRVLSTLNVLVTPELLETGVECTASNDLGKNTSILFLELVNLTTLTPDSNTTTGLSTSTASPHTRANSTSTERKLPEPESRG
The experiment in a line: ELISA; plates coated with recombinant CD146 or BSA at 100, 10 and 1 ng/ml overnight at 4°C, blocked with TBST/ 5% BSA; scFv or scFv-Fc added serially diluted, RT overnight; HRP-conjugated detection antibodies, absorbance at 450 nm. The conditions noted are these: both partners purified.

For assay [3], the target named is T3, CD146 of BEC lysate treated with PNGase F (N-linked oligosaccharides removed) (Homo sapiens, UniProt P43121-1, oligosaccharides removed from N-linked glycoprotein with PNGase F).
T3 construct: human CD146 / MCAM (NP_006491), endogenous in primary human blood endothelial cells, after PNGase F; band shifted down to 95 kDa; PNGase F was added before or after the scFv; also called deglycosylated CD146; source: endogenous, BEC lysate, treated with PNGase F (3 hrs at 37°C)
T3 sequence (P43121 24-646): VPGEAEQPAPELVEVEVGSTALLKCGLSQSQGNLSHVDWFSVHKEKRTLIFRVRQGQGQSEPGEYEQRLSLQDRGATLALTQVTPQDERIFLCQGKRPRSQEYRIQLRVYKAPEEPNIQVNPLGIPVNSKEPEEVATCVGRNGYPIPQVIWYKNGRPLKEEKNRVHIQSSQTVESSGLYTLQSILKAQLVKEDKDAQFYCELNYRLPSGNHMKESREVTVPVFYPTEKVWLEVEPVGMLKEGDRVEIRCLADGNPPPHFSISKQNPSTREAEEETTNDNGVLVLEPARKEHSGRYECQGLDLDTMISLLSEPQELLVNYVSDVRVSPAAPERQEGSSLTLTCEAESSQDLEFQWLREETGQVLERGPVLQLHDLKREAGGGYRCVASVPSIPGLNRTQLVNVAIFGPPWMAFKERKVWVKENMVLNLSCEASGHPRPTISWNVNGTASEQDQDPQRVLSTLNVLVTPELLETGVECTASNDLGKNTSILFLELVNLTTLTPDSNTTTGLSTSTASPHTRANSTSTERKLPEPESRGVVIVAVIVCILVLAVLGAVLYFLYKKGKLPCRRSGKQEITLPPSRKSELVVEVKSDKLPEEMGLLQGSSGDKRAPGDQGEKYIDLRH
The experiment in a line: co-IP; BEC lysate incubated with scFv or scFv-Fc (or Fc only) at 4°C overnight, captured on Protein A/G resin; Western blot in reducing conditions with commercial anti-CD146 antibody; lysates with or without PNGase F, before or after addition of the scFv. The conditions noted are these: one partner purified. (Immunoblotting shows a protein as a band on a membrane.)

In assay [4] the target is T1, CD146 / MCAM on BECs and melanoma cells. Description: ELISA; whole cell ELISA on confluent monolayers in 96-well plates fixed with PBS/ 1% PFA; purified scFv or scFv-Fc added; absorbance at 450 nm. The conditions noted are these: one partner purified. (An ELISA detects its analyte on a solid surface through an enzyme-linked reagent.)

T1 sequence (P43121 24-646): as above

B1: scFv-Fc B6-11 fusion antibody (Fc fusion, human)
VH: EVQLVESGGGLVQGGSLRLSCAASGFTFSSYAMSWVRQAPGKGLEWVSAISGSGGSTYYADSVKGRFTISRDNSKNTLYLQMNSLRAEDTAVYYCAKSSNVRTFDYWGQGTLVTVSR
VL: SSELTQDPAVSVALGQTVRITCQGDSLRSYYASWYQQKPGQAPVLVIYGKNNRPSGIPDRFSGSSSGNTASLTITGAQAEDEADYYCNSSTPLSAPVVFGGGTKLTVL
notes: Runs as a dimer under non-reducing SDS-PAGE; the Fc is that of the vector pFUSE-mIgG2B-Fc2 (Invivogen); also called scFv-mFc fusion antibody; source: HEK293, transfected (pFUSE-mIgG2B-Fc2), purified from culture supernatants (proteinAG UltraLink Resin); not shown: Fc (murine IgG2B), C-terminal, kept
Take B1: the binding result in assay [1] and in assay [2] was “binds” each time.

B2: scFv B6-11 (scFv, V domains shown)
VH: B1 VH
VL: B1 VL
notes: VH of scFv B6-11 (ETH-2 library, human germline heavy chain segment with randomised CDR3); linker region; VL of scFv B6-11 (ETH-2 library, human germline light chain segment with randomised CDR3); Selected from the semi-synthetic human ETH-2 phage library on BECs (round 6); His-tag and Flag-tag come from phagemid pDN332; also called scFv B6-11 antibody; anti-CD146 scFv B6-11; source: E. coli TG1, …
On to B2, for which the binding result in assay [3], in assay [4] and in assay [2] was “binds” throughout.
